B1: SFRS1 (parent)
chain: RDIDLKNRRGGPPFAFVEFEDPRD
B2: SMOC2 (parent)
chain: QKPLCASDGRTFLSRCEFQRAKCK

Variants of: B1
Assay: protein stability index of a GFP-peptide fusion (GPS, HEK-293T) (PSI 1-6); higher = more stable
Details: c terminus: a fixed tail appended
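Note: lentivirally expressed fusions sorted by FACS into six bins by GFP to DsRed ratio, PSI derived from sequencing read proportions per bin multiplied by bin number.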

Protein stability index: each site, then its substitutions
R8: T 4.33 | V 4.17 | W 3.71 | Y 3.96
R9: A 4.57 | C 3.92 | D 4.43 | E 4.18 | F 3.94 | G 4.11 | H 4.21 | I 4.24 | K 3.69 | L 4.27 | M 4.04 | N 4.5 | P 4.16 | Q 4.11 | S 4.12 | T 4.03 | V 4.21 | W 4.23 | Y 3.91
G10: A 3.76 | C 3.22 | D 4.15 | E 4.2 | F 3.9 | H 3.85 | I 3.41 | K 3.42 | L 3.51 | M 3.51 | N 3.63 | P 3.73 | Q 4.18 | R 2.96 | S 4.21 | T 4.3 | V 3.71 | W 2.77 | Y 3.19
G11: A 4.11 | C 3.77 | D 4.23 | E 4.47 | F 3 | H 3.52 | I 3 | K 3.78 | L 2.21 | M 2.61 | N 3.83 | P 3.36 | Q 3.47 | R 3.25 | S 4.17 | T 3.87 | V 3.89 | W 3.1 | Y 3.28
P12: A 4.12 | C 4.13 | D 5.06 | E 4.72 | F 3.5 | G 4.39 | H 4.53 | I 3.13 | K 4.42 | L 3.5 | M 3.93 | N 4.72 | Q 4.17 | R 3.93 | S 4 | T 4.37 | V 3.9 | W 3.43 | Y 3.98
P13: A 4.62 | C 4.51 | D 4.58 | E 4.83 | F 3.42 | G 3.86 | H 4.65 | I 3.34 | K 4.02 | L 3.28 | M 4.02 | N 4.59 | Q 4.79 | R 4.23 | S 4.57 | T 4.34 | V 3.37 | W 3.39 | Y 4
F14: A 5.04 | C 4.91 | D 4.86 | E 5.48 | G 4.92 | H 5.01 | I 4.37 | K 4.51 | L 3.92 | M 4.26 | N 4.58 | P 5.05 | Q 5.27 | R 4.66 | S 5.3 | T 4.9 | V 4.55 | W 3.77 | Y 4.28
A15: C 3.83 | D 4.44 | E 5.13 | F 3.12 | G 4.63 | H 4.46 | I 3.42 | K 4.56 | L 3.76 | M 3.84 | N 4.73 | P 4.31 | Q 4.79 | R 2.25 | S 4.22 | T 4.54 | V 3.58 | W 3.7 | Y 3.56
F16: A 5.03 | C 4.45 | D 5.04 | E 5.2 | G 5.32 | H 4.77 | I 4.36 | K 4.89 | L 4.81 | M 4.88 | N 4.91 | P 5.26 | Q 5 | R 5 | S 4.7 | T 4.96 | V 4.62 | W 3.97 | Y 4.26
V17: A 4.35 | C 4.2 | D 4.77 | E 4.95 | F 4.64 | G 4.43 | H 4.38 | I 3.97 | K 4.62 | L 4.13 | M 4.24 | N 4.62 | P 4.63 | Q 4.61 | R 4.33 | S 4.16 | T 4.75 | W 3.92 | Y 4.42
E18: A 2.18 | C 2.4 | D 3.22 | F 1.81 | G 2.77 | H 2.51 | I 2.24 | K 2.64 | L 1.9 | M 2.35 | N 3.24 | P 2.99 | Q 2.53 | R 3.13 | S 2 | T 2.74 | V 2.2 | W 1.88 | Y 2.3
F19: A 2.95 | C 3.05 | D 3.69 | E 4.77 | G 4.03 | H 3.95 | I 3.27 | K 3.18 | L 4.22 | M 3.19 | N 3.38 | P 3.85 | Q 3.94 | R 3.38 | S 3.19 | T 3.47 | V 3.03 | W 3.39 | Y 4.11
E20: A 3.06 | C 2.67 | D 3.94 | F 2.67 | G 3.14 | H 3.21 | I 2.56 | K 3.52 | L 2.71 | M 2.57 | N 3.68 | P 3.66 | Q 2.91 | R 2.91 | S 2.89 | T 3.3 | V 3.02 | W 2.72 | Y 2.46
D21: A 3.1 | C 2.73 | E 3.99 | F 2.65 | G 2.55 | H 3.34 | I 2.63 | K 3.73 | L 2.51 | M 2.8 | N 3.38 | P 3.45 | Q 3.54 | R 3.08 | S 3.26 | T 3.72 | V 3.02 | W 2.95 | Y 3.18
P22: A 3.93 | C 3.8 | D 4.5 | E 4.43 | F 2.9 | G 4.03 | H 3.63 | I 3.94 | K 4.09 | L 3.19 | M 3.76 | N 4.15 | Q 4.44 | R 3.62 | S 3.93 | T 3.99 | V 3.76 | W 3.55 | Y 3.58
R23: A 3.88 | C 3.67 | D 4.18 | E 4.1 | F 3.37 | G 3.84 | H 4.17 | I 3.67 | K 4.14 | L 3.72 | M 3.79 | N 4.24 | P 4.53 | Q 4.15 | S 4.07 | T 4.33 | V 3.45 | W 3.62 | Y 3.19
D24: A 3.74 | C 2.46 | E 4.76 | F 2.15 | G 3.47 | H 3.59 | I 2.72 | K 3.65 | L 2.31 | M 2.64 | N 2.9 | P 3.42 | Q 3.39 | R 3.19 | S 3.02 | T 3.13 | V 3.11 | W 1.33 | Y 2.5

Variants of: B2
Assay: as above
Details: c terminus: a fixed tail appended

Protein stability index: each site, then its substitutions
Q1: A 2.81 | C 1.87 | D 2.68 | E 3.39 | F 3.05 | G 3.23 | H 2.48 | I 2.19 | K 3.41 | L 2.17 | M 2.78 | N 3.36 | P 2.64 | R 2.76 | S 2.68 | T 3.41 | V 2.58 | Y 2.97
K2: A 2.61 | C 2.03 | D 3.62 | E 3.78 | F 2.75 | G 3.16 | I 3.51 | L 2.99
